Data published in patent publication US20110130449.

How the values were obtained:
[1] = tested on: peptide g
[2] = tested on: NPKRSRSREHRR (peptide d)
[3] = tested on: AR(me2sym)TKQTARKSTGGKAPPK
[4] = tested on: AR(me2asym)TKQTARKSTGGKAPPK
[5] = tested on: peptide f

Substance	hydroxylation of the peptide by Jmjd6 [1]	Jmj6 hydroxylation activity (standard assay, MALDI-TOF MS) [2]	position of hydroxylation (MS/MS) [2]	activity (hydroxylation of the peptide by Jmjd6, MALDI-TOF MS) [3]	activity (hydroxylation of the peptide by Jmjd6, MALDI-TOF MS) [4]	hydroxylation of the peptide by Jmjd6 [5]	hydroxylation of the peptide (MALDI-TOF MS), large scale [2]
N-terminally His6-tagged human Jmjd6 (residues 1-343)	Peptides f and g, which do not contain any lysine residues, were not hydroxylated by Jmjd6.	both the truncated Jmjd6 polypeptides and full-length Jmjd6 hydroxylated peptide d	consistent with the hydroxylation of lysine-3 in peptide d, corresponding to lysine 269 in LUC-like2	Double hydroxylation no demethylation	Double hydroxylation no demethylation	Peptides f and g, which do not contain any lysine residues, were not hydroxylated by Jmjd6.	–
full-length Jmjd6 (recombinant)	–	both the truncated Jmjd6 polypeptides and full-length Jmjd6 hydroxylated peptide d	–	–	–	–	leaving the assay mixture overnight at room temperature till peptide showed complete hydroxylation
